In one experiment the target is HIV virus pNL4-3 (HIV-1). Description: cell-based or functional assay.
The target of the next experiment is HIV virus pAD-8 (HIV-1). Description: cell-based or functional assay.

“anti-HIV broad-spectrum neutralizing antibody 10E8V4-5R+100cF” yielded a pNL4-3 RLU (TZMbl luciferase, neutralisation by supernatant) with HIV virus pNL4-3 (HIV-1) of 121000 RLU. This substance displayed an AD-8 RLU (TZMbl luciferase, neutralisation by supernatant) in the experiment with HIV virus pAD-8 (HIV-1) of 976000 RLU.
In the experiment with HIV virus pNL4-3 (HIV-1), “anti-HIV broad-spectrum neutralizing antibody PGT128” showed a pNL4-3 RLU (TZMbl luciferase, neutralisation by supernatant) of 474000 RLU. In the experiment with HIV virus pAD-8 (HIV-1), this substance returned an AD-8 RLU (TZMbl luciferase, neutralisation by supernatant) of 147000 RLU.

The values above are taken from patent US20240293576A1.
